Laboratory results reported in patent US20090142377A1.

Assays:
[1] = molecular target: cdH5-0 (supernatant of dH5-0 after 10 minutes centrifugation at 16,000-18,000*g) (influenza A virus H5N1 strain A/Vietnam/1203/04); experiment: ELISA, coated H5 form, tPA series with excess e-amino caproic acid
[2] = molecular target: fdH5-0 (ultrafiltrated dH5-0: flow-through of cdH5-0 through a 1,000 kDa cut-off filter) (influenza A virus H5N1 strain A/Vietnam/1203/04); experiment: as above
[3] = molecular target: cross-beta nOVA: ovalbumin (chicken egg-white albumin) dissolved at 1 mg/ml in PBS (chicken) (UniProt P01012); experiment: ELISA, immobilized OVA form
[4] = molecular target: dOVA-1: ovalbumin 5.2 mg/ml in HBS, acidified with HCl, 40 minutes at 37 C, neutralized (chicken) (UniProt P01012); experiment: ELISA, immobilized OVA form
[5] = molecular target: dOVA-2: ovalbumin 1 mg/ml in PBS, five heat cycles 30 to 85 C (chicken) (UniProt P01012); experiment: ELISA, immobilized OVA form
[6] = molecular target: dOVA-3: ovalbumin 1 mg/ml in PBS, about 16 h at 75 C (chicken) (UniProt P01012); experiment: ELISA, immobilized OVA form
[7] = molecular target: cdH5-0 (supernatant of dH5-0 after 10 minutes centrifugation at 16,000-18,000*g) (influenza A virus H5N1 strain A/Vietnam/1203/04); experiment: ELISA, coated H5 form; scaled
[8] = molecular target: dH5-I (cdH5-0 heat-cycled at pH 7) (influenza A virus H5N1 strain A/Vietnam/1203/04) (UniProt Q8QPL1); experiment: ELISA, coated H5 form; scaled
[9] = molecular target: dH5-II (cdH5-0 heat-cycled at pH 2, back to pH 7) (influenza A virus H5N1 strain A/Vietnam/1203/04) (UniProt Q8QPL1); experiment: ELISA, coated H5 form; scaled
[10] = molecular target: dH5-III (cdH5-0 incubated about 16 h at 47.5 C) (influenza A virus H5N1 strain A/Vietnam/1203/04) (UniProt Q8QPL1); experiment: ELISA, coated H5 form; scaled
[11] = molecular target: fdH5-0 (ultrafiltrated dH5-0: flow-through of cdH5-0 through a 1,000 kDa cut-off filter) (influenza A virus H5N1 strain A/Vietnam/1203/04); experiment: ELISA, coated H5 form; scaled
[12] = molecular target: cross-beta nOVA: ovalbumin (chicken egg-white albumin) dissolved at 1 mg/ml in PBS (chicken) (UniProt P01012); experiment: ELISA, immobilized OVA; normalized to nOVA
[13] = molecular target: cdH5-0 (supernatant of dH5-0 after 10 minutes centrifugation at 16,000-18,000*g) (influenza A virus H5N1 strain A/Vietnam/1203/04); experiment: ELISA, immobilized H5; normalized to cdH5-0
[14] = molecular target: dH5-I (cdH5-0 heat-cycled at pH 7) (influenza A virus H5N1 strain A/Vietnam/1203/04) (UniProt Q8QPL1); experiment: ELISA, immobilized H5; normalized to cdH5-0
[15] = molecular target: fdH5-0 (ultrafiltrated dH5-0: flow-through of cdH5-0 through a 1,000 kDa cut-off filter) (influenza A virus H5N1 strain A/Vietnam/1203/04); experiment: ELISA, immobilized H5; normalized to cdH5-0
[16] = molecular target: non-treated H5 (nH5) of H5N1 strain A/Vietnam/1203/04 (Protein Sciences) (influenza A virus H5N1 strain A/Vietnam/1203/04); experiment: ELISA, coated nH5, antibody 1:2000

| Substance | relative affinity kD [4] | relative affinity kD [7] | relative affinity kD [8] | relative affinity kD [9] | relative affinity kD [10] | relative affinity kD [11] | other results |
| --- | --- | --- | --- | --- | --- | --- | --- |
| tissue type plasminogen activator (tPA; Actilyse, Boehringer-Ingelheim) (from UniProt P00750 36-562) (enzyme) |  |  |  |  |  |  | Bmax [1]: 0.36; Bmax [2]: 0.37 |
| mouse HYB 099-09 (IgG1) anti-OVA monoclonal antibody | 127 a.u. |  |  |  |  |  | relative affinity kD [3]: 71.2 a.u.; relative affinity kD [5]: 85.1 a.u.; relative affinity kD [6]: 164 a.u. |
| HyTest clone 17C8, mouse monoclonal anti-H5 antibody |  | 100 a.u. | 51 a.u. | 34 a.u. | 68 a.u. | 128 a.u. |  |
| Rockland anti-H5 A/VN/1203/04 mouse monoclonal antibody, catalogue number 200-301-978 |  | 100 a.u. | 115 a.u. | 31 a.u. | 112 a.u. | 107 a.u. |  |
| HyTest IgG2a clone 8D2, mouse monoclonal anti-H5 antibody |  | 100 a.u. | 34 a.u. | 36 a.u. | 72 a.u. | 125 a.u. |  |
| monoclonal anti-OVA IgG (A6075, Sigma) (antibody) | 20.8 a.u. |  |  |  |  |  |  |
| fourth and fifth finger domain of fibronectin (Fn F4-5), with C-terminal FLAG-tag (from UniProt P02751 183-275) |  |  |  |  |  |  | Normalized affinity, kD (%) [12]: 100%; Normalized affinity, kD (%) [13]: 100%; Normalized affinity, kD (%) [14]: 0%; Normalized affinity, kD (%) [15]: 69% |
| Rockland anti-H5 A/VN/1203/04 mouse monoclonal antibody, catalogue number 200-301-979 |  | 100 a.u. | 125 a.u. | 83 a.u. | 126 a.u. | 97 a.u. |  |
| Rockland anti-H5 A/VN/1203/04 mouse monoclonal antibody, catalogue number 200-301-975 |  | 100 a.u. | 47 a.u. | 79 a.u. | 78 a.u. | 103 a.u. | ELISA signal [16]: 1.5 |
| Rockland anti-H5 A/VN/1203/04 mouse monoclonal antibody, catalogue number 200-301-977 |  | 100 a.u. | 0 a.u. | 0 a.u. | 35 a.u. | 93 a.u. |  |
| mouse HYB 099-02 (IgG1) anti-OVA monoclonal antibody | 154 a.u. |  |  |  |  |  | relative affinity kD [3]: 103 a.u.; relative affinity kD [5]: 118 a.u.; relative affinity kD [6]: 154 a.u. |
| Rockland anti-H5 A/VN/1203/04 mouse monoclonal antibody, catalogue number 200-301-976 |  | 100 a.u. | 0 a.u. | 132 a.u. | 127 a.u. | 105 a.u. |  |
| HyTest IgG2a clone 15A6, mouse monoclonal anti-H5 antibody |  | 100 a.u. | 105 a.u. | 31 a.u. | 76 a.u. | 204 a.u. |  |
| Sigma C6534 anti-OVA antibody | 44 a.u. |  |  |  |  |  | relative affinity kD [3]: 84.9 a.u.; relative affinity kD [5]: 221 a.u.; relative affinity kD [6]: 287 a.u. |
| mouse HYB 099-01 (IgG1) anti-OVA monoclonal antibody | 115 a.u. |  |  |  |  |  | relative affinity kD [3]: 98.5 a.u.; relative affinity kD [5]: 129 a.u.; relative affinity kD [6]: 80.9 a.u. |
